Laboratory results: US20140045211

Key:
[1] = biological target: 3D3 ubiquitin-CCL7 fusion (ubiquitin I3L, V17L, I23V)
[2] = biological target: 2D6 ubiquitin-CCL7 fusion

B1: Usp2-cc (catalytic core of the mouse deubiquitylating enzyme Usp2) (protein)
chain: SKSAQGLAGLRNLGNTCFMNSILQCLSNTRELRDYCLQRLYMRDLGHTSSAHTALMEEFAKLIQTIWTSSPNDVVSPSEFKTQIQRYAPRFMGYNQQDAQEFLRFLLDGLHNEVNRVAARPKASPETLDHLPDEEKGRQMWRKYLEREDSRIGDLFVGQLKSSLTCTDCGYCSTVFDPFWDLSLPIAKRGYPEVTLMDCMRLFTKEDILDGDEKPTCCRCRARKRCIKKFSVQRFPKILVLHLKRFSESRIRTSKLTTFVNFPLRDLDLREFASENTNHAVYNLYAVSNHSGTTMGGHYTAYCRSPVTGEWHTFNDSSVTPMSSSQVRTSDAYLLFYELASPPSRM
[1]
  Usp2-cc cleavage time course (SDS-PAGE): 3D3 ubiquitin (3D3-CCL7) was recognized and cleaved with efficiency similar to that observed for wildtype ubiquitin (WT-CCL7)
[2]
  Usp2-cc cleavage time course (SDS-PAGE): the 2D6 fusion (2D6-CCL7) was only partially cleavable, with large amounts of fusion remaining uncleaved after 12 hr
